Test results: article PMC9605714

Target: SUMOylated Hsp82p (Hsp82p^K178C crosslinked with BMOE to Smt3p^Cys at position 178) (S. cerevisiae) (UniProt P02829)

apparent binding affinity (K app) from Aha1p titration into ATPase reactions of 1 uM Hsp82p form (PK/LDH regenerating system): 0.31 µM
B1: 6xHisMyc-tagged Aha1p (natural protein)
chain: MVVNNPNNWHWVDKNCIGWAKEYFKQKLVGVEAGSVKDKKYAKIKSVSSIEGDCEVNQRKGKVISLFDLKITVLIEGHVDSKDGSALPFEGSINVPEVAFDSEASSYQFDISIFKETSELSEAKPLIRSELLPKLRQIFQQFGKDLLATHGNDIQVPESQVKSNYTRGNQKSSFTEIKDSASKPKKNALPSSTSTSAPVSSTNKVPQNGSGNSTSIYLEPTFNVPSSELYETFLDKQRILAWTRSAQFFNSGPKLETKEKFELFGGNVISELVSCEKDKKLVFHWKLKDWSAPFNSTIEMTFHESQEFHETKLQVKWTGIPVGEEDRVRANFEEYYVRSIKLTFGFGAVL
